Reference: the supplement of paper PMC10567573

B1: WEE1 (parent)
chain: FISRTSIPNAASEEGDEDDWASNK

Variants of: B1
Test: protein stability index of a GFP-peptide fusion (GPS, HEK-293T) (PSI 1-6); higher = more stable
Conditions: c terminus: a fixed tail appended
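Also: lentivirally expressed fusions sorted by FACS into six bins by GFP to DsRed ratio, PSI derived from sequencing read proportions per bin multiplied by bin number.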

First: FISRTSIPNAAFEEGDEDDWASNK [S12F]
Second: FISRTSIPNAANEEGDEDDWASNK [S12N]
The protein stability index of the first is lower: 3.68 for the first, 4.07 for the second.

First: FISRTSIPNAAGEEGDEDDWASNK [S12G]
Second: FISRTSIPNAADEEGDEDDWASNK [S12D]
The protein stability index of the first is lower: 4.13 for the first, 4.26 for the second.

First: FISRTSIPNAAAEEGDEDDWASNK [S12A]
Second: FISRTSIPNAAPEEGDEDDWASNK [S12P]
The protein stability index of the first is lower: 3.64 for the first, 4.18 for the second.

Compared with FISRTSIPNAALEEGDEDDWASNK [S12L], FISRTSIPNAAMEEGDEDDWASNK [S12M] is lower in protein stability index: 4.03 for the first, 3.68 for the second.

Going from FISRTSIPNAAKEEGDEDDWASNK [S12K] to FISRTSIPNAAEEEGDEDDWASNK [S12E], the protein stability index rises from 3.75 to 4.34.

Compared with FISRTSIPNAAQEEGDEDDWASNK [S12Q], FISRTSIPNAACEEGDEDDWASNK [S12C] is lower in protein stability index: 4.3 for the first, 3.97 for the second.

Going from FISRTSIPNAATEEGDEDDWASNK [S12T] to FISRTSIPNAAIEEGDEDDWASNK [S12I], the protein stability index rises from 3.56 to 3.85.

Compared with FISRTSIPNAAREEGDEDDWASNK [S12R], FISRTSIPNAAHEEGDEDDWASNK [S12H] is lower in protein stability index: 4.37 for the first, 3.93 for the second.

Going from FISRTSIPNAAYEEGDEDDWASNK [S12Y] to FISRTSIPNAAVEEGDEDDWASNK [S12V], the protein stability index rises from 3.76 to 3.91.

Compared with FISRTSIPNAAWEEGDEDDWASNK [S12W], FISRTSIPNAWSEEGDEDDWASNK [A11W] is lower in protein stability index: 3.47 for the first, 2.45 for the second.

Compared with FISRTSIPNANSEEGDEDDWASNK [A11N], FISRTSIPNAVSEEGDEDDWASNK [A11V] is higher in protein stability index: 3.79 for the first, 3.92 for the second.

Going from FISRTSIPNASSEEGDEDDWASNK [A11S] to FISRTSIPNATSEEGDEDDWASNK [A11T], the protein stability index falls from 4.23 to 4.19.

Compared with FISRTSIPNAISEEGDEDDWASNK [A11I], FISRTSIPNAFSEEGDEDDWASNK [A11F] is lower in protein stability index: 3.48 for the first, 3.47 for the second.

First: FISRTSIPNAESEEGDEDDWASNK [A11E]
Second: FISRTSIPNALSEEGDEDDWASNK [A11L]
The protein stability index of the first is higher: 4.37 for the first, 4.13 for the second.

Going from FISRTSIPNACSEEGDEDDWASNK [A11C] to FISRTSIPNAQSEEGDEDDWASNK [A11Q], the protein stability index rises from 3.47 to 4.21.

First: FISRTSIPNAYSEEGDEDDWASNK [A11Y]
Second: FISRTSIPNAHSEEGDEDDWASNK [A11H]
The protein stability index of the first is lower: 3.63 for the first, 4.4 for the second.

Compared with FISRTSIPNARSEEGDEDDWASNK [A11R], FISRTSIPNADSEEGDEDDWASNK [A11D] is higher in protein stability index: 3.78 for the first, 4.12 for the second.

FISRTSIPNAMSEEGDEDDWASNK [A11M] and FISRTSIPNAPSEEGDEDDWASNK [A11P] are the same in protein stability index: 3.95 for the first, 3.95 for the second.

Going from FISRTSIPNAKSEEGDEDDWASNK [A11K] to FISRTSIPNAGSEEGDEDDWASNK [A11G], the protein stability index rises from 3.69 to 4.23.

Compared with FISRTSIPNAASEEGGEDDWASNK [D16G], FISRTSIPNAASEEGVEDDWASNK [D16V] is higher in protein stability index: 3.76 for the first, 3.86 for the second.

Going from FISRTSIPNAASEEGHEDDWASNK [D16H] to FISRTSIPNAASEEGREDDWASNK [D16R], the protein stability index rises from 3.23 to 4.17.

First: FISRTSIPNAASEEGWEDDWASNK [D16W]
Second: FISRTSIPNAASEEGFEDDWASNK [D16F]
The protein stability index of the first is lower: 3.23 for the first, 3.63 for the second.

Compared with FISRTSIPNAASEEGMEDDWASNK [D16M], FISRTSIPNAASEEGAEDDWASNK [D16A] is higher in protein stability index: 3.61 for the first, 3.72 for the second.

First: FISRTSIPNAASEEGQEDDWASNK [D16Q]
Second: FISRTSIPNAASEEGTEDDWASNK [D16T]
The protein stability index of the first is higher: 4.02 for the first, 3.49 for the second.

Going from FISRTSIPNAASEEGIEDDWASNK [D16I] to FISRTSIPNAASEEGPEDDWASNK [D16P], the protein stability index falls from 4 to 3.55.

Going from FISRTSIPNAASEEGKEDDWASNK [D16K] to FISRTSIPNAASEEGNEDDWASNK [D16N], the protein stability index falls from 3.81 to 3.8.

Going from FISRTSIPNAASEEGCEDDWASNK [D16C] to FISRTSIPNAASEEGSEDDWASNK [D16S], the protein stability index falls from 3.74 to 3.65.

Going from FISRTSIPNAASEEGLEDDWASNK [D16L] to FISRTSIPNAASEEGEEDDWASNK [D16E], the protein stability index rises from 3.83 to 3.94.

Compared with FISRTSIPNAASPEGDEDDWASNK [E13P], FISRTSIPNAASTEGDEDDWASNK [E13T] is lower in protein stability index: 4.43 for the first, 3.55 for the second.

First: FISRTSIPNAASIEGDEDDWASNK [E13I]
Second: FISRTSIPNAASLEGDEDDWASNK [E13L]
The protein stability index of the first is lower: 3.03 for the first, 3.5 for the second.

First: FISRTSIPNAASWEGDEDDWASNK [E13W]
Second: FISRTSIPNAASQEGDEDDWASNK [E13Q]
The protein stability index of the first is lower: 3.54 for the first, 3.81 for the second.

First: FISRTSIPNAASCEGDEDDWASNK [E13C]
Second: FISRTSIPNAASDEGDEDDWASNK [E13D]
The protein stability index of the first is lower: 3.62 for the first, 3.68 for the second.

First: FISRTSIPNAASGEGDEDDWASNK [E13G]
Second: FISRTSIPNAASAEGDEDDWASNK [E13A]
The protein stability index of the first is lower: 3.78 for the first, 3.85 for the second.

Compared with FISRTSIPNAASYEGDEDDWASNK [E13Y], FISRTSIPNAASKEGDEDDWASNK [E13K] is higher in protein stability index: 3.46 for the first, 3.5 for the second.

Going from FISRTSIPNAASSEGDEDDWASNK [E13S] to FISRTSIPNAASREGDEDDWASNK [E13R], the protein stability index rises from 3.9 to 4.15.

Compared with FISRTSIPNAASFEGDEDDWASNK [E13F], FISRTSIPNAASMEGDEDDWASNK [E13M] is lower in protein stability index: 3.65 for the first, 3.64 for the second.

First: FISRTSIPNAASVEGDEDDWASNK [E13V]
Second: FISRTSIPNAASHEGDEDDWASNK [E13H]
The protein stability index of the first is lower: 3.29 for the first, 3.67 for the second.

First: FISRTSIPNAASNEGDEDDWASNK [E13N]
Second: FISRTSIQNAASEEGDEDDWASNK [P8Q]
The protein stability index of the first is lower: 3.51 for the first, 3.96 for the second.

Compared with FISRTSILNAASEEGDEDDWASNK [P8L], FISRTSIENAASEEGDEDDWASNK [P8E] is higher in protein stability index: 2.92 for the first, 3.82 for the second.

Going from FISRTSIHNAASEEGDEDDWASNK [P8H] to FISRTSIYNAASEEGDEDDWASNK [P8Y], the protein stability index falls from 3.41 to 2.16.

Going from FISRTSIANAASEEGDEDDWASNK [P8A] to FISRTSIINAASEEGDEDDWASNK [P8I], the protein stability index falls from 3.93 to 3.82.

Going from FISRTSISNAASEEGDEDDWASNK [P8S] to FISRTSIMNAASEEGDEDDWASNK [P8M], the protein stability index falls from 4.05 to 3.51.

Going from FISRTSIGNAASEEGDEDDWASNK [P8G] to FISRTSIWNAASEEGDEDDWASNK [P8W], the protein stability index falls from 2.17 to 2.01.

Going from FISRTSITNAASEEGDEDDWASNK [P8T] to FISRTSIVNAASEEGDEDDWASNK [P8V], the protein stability index falls from 4.1 to 3.48.

Compared with FISRTSIDNAASEEGDEDDWASNK [P8D], FISRTSIKNAASEEGDEDDWASNK [P8K] is lower in protein stability index: 4.68 for the first, 4.12 for the second.

Going from FISRTSIFNAASEEGDEDDWASNK [P8F] to FISRTSICNAASEEGDEDDWASNK [P8C], the protein stability index falls from 3.19 to 3.18.

Going from FISRTSINNAASEEGDEDDWASNK [P8N] to FISRTSIRNAASEEGDEDDWASNK [P8R], the protein stability index falls from 4.31 to 3.69.
